Experimental data reported in patent US20230257479A1 (Genmab, published 2023).
Positions count from the first letter of the chain named. Names and notes keep the numbering of the source.

Assays:
[1] = target: T1, full length human 5T4 (SEQ ID NO: 1) on cells (human, UniProt Q13641 32-420); experiment: flow cytometry, HeLa cells, PE secondary [II)A]
T1 construct: Uniprot Q13641; residues 1-31 are the signal peptide; Used both for transfected HEK-293 cells and for 5T4-expressing human tumor cell lines
T1 sequence: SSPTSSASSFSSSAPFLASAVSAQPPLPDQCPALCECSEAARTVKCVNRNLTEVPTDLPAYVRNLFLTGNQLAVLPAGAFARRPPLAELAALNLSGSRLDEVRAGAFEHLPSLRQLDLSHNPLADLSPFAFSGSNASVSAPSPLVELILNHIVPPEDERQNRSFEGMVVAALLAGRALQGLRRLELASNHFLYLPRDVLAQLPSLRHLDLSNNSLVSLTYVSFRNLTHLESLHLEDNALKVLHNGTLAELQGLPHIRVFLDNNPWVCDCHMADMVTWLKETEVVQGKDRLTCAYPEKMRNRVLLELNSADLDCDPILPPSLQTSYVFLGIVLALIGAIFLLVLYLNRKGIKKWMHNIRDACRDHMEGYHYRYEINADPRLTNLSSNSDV

[2] = target: T2, full length cynomolgus monkey 5T4 on transfected HEK-293 cells (cynomolgus monkey, UniProt Q4R8Y9 35-420); experiment: flow cytometry, HEK-293 cells transfected with cynomolgus monkey 5T4, PE secondary [II)A]
T2 construct: Uniprot Q4R8Y9; residues 1-34 are the signal peptide; also called cynomolgus 5T4
T2 sequence: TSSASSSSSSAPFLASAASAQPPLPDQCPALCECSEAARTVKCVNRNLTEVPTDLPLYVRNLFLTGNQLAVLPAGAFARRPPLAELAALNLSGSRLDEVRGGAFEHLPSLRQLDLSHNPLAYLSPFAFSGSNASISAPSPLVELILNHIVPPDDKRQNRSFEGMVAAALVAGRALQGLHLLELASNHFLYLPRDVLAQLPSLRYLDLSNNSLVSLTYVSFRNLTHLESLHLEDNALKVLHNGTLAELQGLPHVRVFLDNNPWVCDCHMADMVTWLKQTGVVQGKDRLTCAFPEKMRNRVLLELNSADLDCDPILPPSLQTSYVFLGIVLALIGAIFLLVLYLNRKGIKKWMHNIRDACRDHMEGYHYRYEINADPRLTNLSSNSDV

[3] = target: T1, full length human 5T4 (SEQ ID NO: 1) on …; experiment: flow cytometry, OE33 cells, R-PE secondary
[4] = target: T1, full length human 5T4 (SEQ ID NO: 1) on …; experiment: flow cytometry, FaDu cells, R-PE secondary
[5] = target: T1, full length human 5T4 (SEQ ID NO: 1) on …; experiment: flow cytometry, MDA-MB-231 cells, PE secondary [III)A]
[6] = target: T1, full length human 5T4 (SEQ ID NO: 1) on …; experiment: flow cytometry, HeLa cells, FITC secondary [I)A]
[7] = target: T1, full length human 5T4 (SEQ ID NO: 1) on …; experiment: flow cytometry, HEK-293 cells transfected with human 5T4, PE secondary [II)A]
[8] = target: T2, full length cynomolgus monkey 5T4 on …; experiment: flow cytometry, HEK-293 cells transfected with cynomolgus monkey 5T4, FITC secondary [I)A]
[9] = target: T1, full length human 5T4 (SEQ ID NO: 1) on …; experiment: flow cytometry, SCC-9 cells, R-PE secondary
[10] = target: T1, full length human 5T4 (SEQ ID NO: 1) on …; experiment: flow cytometry, NCI-H292 cells, R-PE secondary
[11] = target: T1, full length human 5T4 (SEQ ID NO: 1) on …; experiment: flow cytometry, MDA-MB-231 cells, FITC secondary [I)A]
[12] = target: T1, full length human 5T4 (SEQ ID NO: 1) on …; experiment: flow cytometry, SK-GT-4 cells, R-PE secondary
[13] = target: T1, full length human 5T4 (SEQ ID NO: 1) on …; experiment: flow cytometry, HEK-293 cells transfected with human 5T4, FITC secondary [I)D]
[14] = target: T2, full length cynomolgus monkey 5T4 on …; experiment: flow cytometry, HEK-293 cells transfected with cynomolgus monkey 5T4, FITC secondary [I)D]
[15] = target: T3, human 5T4ECDHis (mature protein of SEQ ID NO: 99) (human, UniProt Q13641 32-355); experiment: BLI cross-block; competitor (immobilised): IgG1-5T4-226-FEAR
T3 construct: ECD of human 5T4 (aa 1-355 of Uniprot Q13641) with C-terminal His tag; residues 1-31 are the signal peptide; also called ECD of human 5T4 with a C-terminal His tag
T3 sequence: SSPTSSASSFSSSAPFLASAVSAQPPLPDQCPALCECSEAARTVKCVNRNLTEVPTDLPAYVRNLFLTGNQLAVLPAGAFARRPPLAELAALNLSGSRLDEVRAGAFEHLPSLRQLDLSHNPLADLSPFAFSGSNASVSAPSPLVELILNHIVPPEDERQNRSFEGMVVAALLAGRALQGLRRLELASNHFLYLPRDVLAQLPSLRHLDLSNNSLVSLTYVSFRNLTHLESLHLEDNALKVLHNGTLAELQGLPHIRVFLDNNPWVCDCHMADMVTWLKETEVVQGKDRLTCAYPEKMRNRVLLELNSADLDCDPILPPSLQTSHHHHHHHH

[16] = target: T3, human 5T4ECDHis (mature protein of SEQ …); experiment: BLI cross-block; competitor (immobilised): IgG1-5T4-059-FEAR
[17] = target: T3, human 5T4ECDHis (mature protein of SEQ …); experiment: BLI cross-block; competitor (immobilised): IgG1-5T4-085-FEAR
[18] = target: T3, human 5T4ECDHis (mature protein of SEQ …); experiment: BLI cross-block; competitor (immobilised): IgG1-5T4-A3-F405L
[19] = target: T3, human 5T4ECDHis (mature protein of SEQ …); experiment: BLI cross-block; competitor (immobilised): IgG1-5T4-H8-FEAR
[20] = target: T1, full length human 5T4 (SEQ ID NO: 1) on …; experiment: flow cytometry, MDA-MB-231 cells, PE secondary [III)E]
[21] = target: T3, human 5T4ECDHis (mature protein of SEQ …); experiment: BLI cross-block; competitor (immobilised): IgG1-5T4-127-FEAR
[22] = target: T3, human 5T4ECDHis (mature protein of SEQ …); experiment: BLI cross-block; competitor (immobilised): IgG1-5T4-A1-F405L
[23] = target: T3, human 5T4ECDHis (mature protein of SEQ …); experiment: BLI cross-block; competitor (immobilised): IgG1-5T4-076-FEAR
[24] = target: T2, full length cynomolgus monkey 5T4 on …; experiment: flow cytometry, HEK-293 cells transfected with cynomolgus monkey 5T4, PE secondary [II)F]
[25] = target: T3, human 5T4ECDHis (mature protein of SEQ …); experiment: BLI cross-block; competitor (immobilised): IgG1-5T4-106-FEAR
[26] = target: T3, human 5T4ECDHis (mature protein of SEQ …); experiment: BLI cross-block; competitor (immobilised): IgG1-5T4-207-FEAR
[27] = target: T2, full length cynomolgus monkey 5T4 on …; experiment: flow cytometry, HEK-293 cells transfected with cynomolgus monkey 5T4, PE secondary [II)D]
[28] = target: T1, full length human 5T4 (SEQ ID NO: 1) on …; experiment: flow cytometry, HEK-293 cells transfected with human 5T4, PE secondary [II)D]
[29] = target: T3, human 5T4ECDHis (mature protein of SEQ …); experiment: BLI, antibody on anti-human IgG Fc Capture biosensor, antigen in solution

B1: bsIgG1-huCD3-H101G-FEALx5T4-207-FEAR (bispecific antibody)
heavy 1: not shown
light 1: not shown
heavy 2: QVQLQQWGAGLLKPSETLSLTCAVYGGSFSGYYWTWIRQPPGKGLEWIGEIDHSESTNYNPSLKSRVTISVDTSKNQFSLKLSSVTAADTAVYYCAGWFGELYHYYYGMDVWGQGTTVTVSSASTKGPSVFPLAPSSKSTSGGTAALGCLVKDYFPEPVTVSWNSGALTSGVHTFPAVLQSSGLYSLSSVVTVPSSSLGTQTYICNVNHKPSNTKVDKRVEPKSCDKTHTCPPCPAPEFEGGPSVFLFPPKPKDTLMISRTPEVTCVVVAVSHEDPEVKFNWYVDGVEVHNAKTKPREEQYNSTYRVVSVLTVLHQDWLNGKEYKCKVSNKALPAPIEKTISKAKGQPREPQVYTLPPSREEMTKNQVSLTCLVKGFYPSDIAVEWESNGQPENNYKTTPPVLDSDGSFFLYSRLTVDKSRWQQGNVFSCSVMHEALHNHYTQKSLSLSPG
light 2: not shown
notes: also called CD3x5T4 bispecific antibody
- EC50 (read off the curve) [1]: ~0.04 µg/mL
- EC50 (read off the curve) [2]: ~0.03 µg/mL
- EC50 (read off the curve) [3]: ~0.08 µg/mL
- EC50 (read off the curve) [4]: ~0.06 µg/mL
- EC50 (read off the curve) [5]: ~0.04 µg/mL
- EC50 (read off the curve) [6]: ~0.04 µg/mL
- EC50 (read off the curve) [7]: ~0.06 µg/mL
- EC50 (read off the curve) [8]: ~0.1 µg/mL
- EC50 (read off the curve) [9]: ~0.08 µg/mL
- EC50 (read off the curve) [10]: ~0.03 µg/mL
- EC50 (read off the curve) [11]: ~0.1 µg/mL
- EC50 (read off the curve) [12]: ~0.08 µg/mL

B2: bsIgG1-huCD3-H101G-FEALx5T4-H8-FEAR (bispecific antibody)
heavy: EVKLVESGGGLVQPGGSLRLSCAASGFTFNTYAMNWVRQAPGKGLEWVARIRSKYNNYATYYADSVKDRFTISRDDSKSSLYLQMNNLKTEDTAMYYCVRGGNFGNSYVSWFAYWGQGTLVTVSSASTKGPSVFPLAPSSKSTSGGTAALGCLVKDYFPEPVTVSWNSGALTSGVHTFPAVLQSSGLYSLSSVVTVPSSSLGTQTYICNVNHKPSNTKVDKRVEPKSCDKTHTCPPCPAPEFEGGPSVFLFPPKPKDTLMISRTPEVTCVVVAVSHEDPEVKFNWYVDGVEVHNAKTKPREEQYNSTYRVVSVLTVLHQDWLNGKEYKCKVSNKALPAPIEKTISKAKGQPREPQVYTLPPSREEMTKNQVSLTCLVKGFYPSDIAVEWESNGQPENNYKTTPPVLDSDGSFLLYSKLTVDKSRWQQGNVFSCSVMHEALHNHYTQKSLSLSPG
light: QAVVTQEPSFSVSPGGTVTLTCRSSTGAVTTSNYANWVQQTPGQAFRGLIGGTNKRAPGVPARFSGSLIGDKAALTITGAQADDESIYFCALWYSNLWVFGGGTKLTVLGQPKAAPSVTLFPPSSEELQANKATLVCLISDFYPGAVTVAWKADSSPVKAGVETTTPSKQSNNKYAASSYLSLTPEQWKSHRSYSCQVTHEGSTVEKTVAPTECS
VH: EVQLQQSGPDLVKPGASVKISCKASGYSFTGYYMHWVKQSHGKSLEWIGRINPNNGVTLYNQKFKDKAILTVDKSSTTAYMELRSLTSEDSAVYYCARSTMITNYVMDYWGQVTSVTVSS
VL: SIVMTQTPTFLLVSAGDRVTITCKASQSVSNDVAWYQQKPGQSPTLLISYTSSRYAGVPDRFIGSGYGTDFTFTISTLQAEDLAVYFCQQDYNSPPTFGGGTKLEIK
notes: Fab-arm exchange product
- binding result [13]: binds
- EC50 (read off the curve) [14]: ~0.1 µg/mL

B3: IgG1-5T4-085-FEAR (antibody, V domains shown)
VH: EVQLLESGGGLVQPGGSLRLSCAASGFTFSSYAMSWVRQAPGKGLEWVSAISGSGGSTYNADSVKGRFTIFRDNSKNTLYLHMNSLRAEDTAVYYCARDPGYNNVEYLDHWGQGTLVTVSS
VL: AIQLTQSPSSLSASVGDRVTITCRASQGISSALAWYQQKPGKAPKLLIYDASSLESGVPSRFSGSGSGTDFTLTISSLQPEDFATYYCQQFNSYPLTFGGGTKVEIK
notes: Monospecific, bivalent human IgG1 kappa with L234F, L235E, D265A, K409R (FEAR)
- corrected association response [15]: 1.35 nm
- corrected association response [16]: -0.02 nm
- corrected association response [17]: -0.01 nm
- corrected association response [18]: 0 nm
- corrected association response [19]: -0.02 nm
- EC50 (read off the curve) [20]: ~0.04 µg/mL
- corrected association response [21]: -0.01 nm
- corrected association response [22]: 0.72 nm
- corrected association response [23]: -0.02 nm
- EC50 (read off the curve) [24]: ~8 ng/mL
- corrected association response [25]: -0.04 nm
- corrected association response [26]: 1.03 nm

B4: IgG1-5T4-106-FEAR (antibody, V domains shown)
VH: EVQLVQSGAEVKKPGESLKISCKGSGYRFTSYWIGWVRQMPGKGLEWMGIIYPGDSDARYSPSFQGQVTISADKSISTAYLQWSSLKASDTGMYYCARSVLFDYWGQGTLVTVSS
VL: B3 VL with A51V, S53N, L96H, G100Q, V104L
notes: as for B3
- corrected association response [15]: -0.02 nm
- corrected association response [16]: 0.01 nm
- binding result [27]: binds
- corrected association response [17]: -0.01 nm
- corrected association response [18]: 0.57 nm
- corrected association response [19]: -0.01 nm
- EC50 (read off the curve) [28]: ~0.01 µg/mL
- corrected association response [21]: -0.01 nm
- corrected association response [22]: 0.85 nm
- corrected association response [23]: -0.02 nm
- corrected association response [25]: -0.02 nm
- corrected association response [26]: -0.01 nm
- Kd [29]: 5.5 nM
- koff [29]: 0.0012 s⁻¹
- kon [29]: 210000 M⁻¹ s⁻¹
